Two molecules from PMC12403168, “Revisiting the co-crystal structure of a DNA glycosylase with photocaged substrate: a suitable time-resolved crystallography target?” can be followed below.

The target in series [1] is T1, hOgg1 N149C (8-oxoguanine DNA glycosylase) (Homo sapiens, UniProt O15527 12-327, N149C). Nature of the series: X-ray crystallography; disulfide cross-linked complex, illuminated 365 nm (95 J) and cryotrapped (G*Olight), oG in active site at 68% occupancy, Ca2+ present, 2.48 A; Complex formation: 20 mM Tris-HCl, 100 mM NaCl, 1 mM EDTA pH 7.4, on ice overnight (12 nmol DNA, 24 nmol protein in 1.2 ml); purified by anion exchange and SEC; crystallized at 13 mg/ml. Conditions: protein: recombinant; tags: His-tag (pET28a, NdeI/XhoI); 5' overhang 1 nt on each strand.
T1 sequence (O15527 12-327 N149C): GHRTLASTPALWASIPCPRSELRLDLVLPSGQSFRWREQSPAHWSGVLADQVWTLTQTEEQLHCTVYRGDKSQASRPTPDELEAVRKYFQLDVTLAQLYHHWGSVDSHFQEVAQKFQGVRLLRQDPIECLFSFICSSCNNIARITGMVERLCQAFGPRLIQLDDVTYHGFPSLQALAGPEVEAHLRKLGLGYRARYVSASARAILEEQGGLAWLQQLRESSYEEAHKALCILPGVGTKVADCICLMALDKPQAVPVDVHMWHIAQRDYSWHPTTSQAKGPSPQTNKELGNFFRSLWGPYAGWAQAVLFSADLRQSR

For series [2], the target named is T1, hOgg1 N149C (8-oxoguanine DNA …). Kind of series: X-ray crystallography; disulfide cross-linked complex, dark (G*Odark), 2.81 A; Complex formation: 20 mM Tris-HCl, 100 mM NaCl, 1 mM EDTA pH 7.4, on ice overnight (12 nmol DNA, 24 nmol protein in 1.2 ml); purified by anion exchange and SEC; crystallized at 13 mg/ml. Conditions: protein: recombinant; tags: His-tag (pET28a, NdeI/XhoI); 5' overhang 1 nt on each strand.

B1: oG/C‡ duplex, uncaged in crystallo by 365 nm light (dsDNA)
DNA 1: AGCGTCCAGGTCTACC
DNA 2: TGGTAGACCTGGACGC
modifications: strand 1 G9 = 8-oxoguanine (oG) after photodeprotection; strand 2 C9 = N4-modified cytosine (C‡), disulfide to Cys149
Turning to B1, in series [1], the binding result is “binds”.

B2: oG*/C‡ duplex (Table S1 entries 3 and 5) (dsDNA)
DNA 1: AGCGTCCAGGTCTACC
DNA 2: TGGTAGACCTGGACGC
modifications: strand 1 G9 = photocaged 8-oxoguanine (oG*); strand 2 C9 = N4-modified cytosine (C‡) for disulfide cross-linking
For the molecule B2, the binding result in series [2] is “binds”.
